Results as given in patent US9428783B2, “DNA encoding dipeptide-synthesizing enzyme (variants), bacterium belonging to the genus Escherichia, and methods for producing dipeptides using thereof” (Ajinomoto Co., Inc., priority 2012, dated 2016).

B1: BBR47_51900: L-amino acid α-ligase (hypothetical protein) from Brevibacillus brevis NBRC 100599, SEQ ID NO: 2 (protein)
chain: MNKHFLFVEANTTGTGMLAMKKARKLGFTPVFFTEKPERYHGLNELECHVVVTDTNSQAELTDSVAQVSKEGREIAGIMSTSDYYLESVAKLARKFGWISNSLEAIEACRNKAIFREKLQRHQVSQPTFLAISSMEQLLEARSSISLPCVVKPADDSGSNNVRLCFSWDEVEHMAAEILAIKYNARGQETARTVLLEQYAEGPEFSVETFSWQGQCFVIGITQKRLTGYPFFVEAGHIFPAPLSVEEKQEIERTVERALAAVKYQFGAAHTEVKWTSAGCVVIEVNARLAGGMIPELVRRSTGIDLLLQQIRCAAGLEPELSQTIEEQRCAGIHFLVSESQGTFGGIKGMDTVRNLPGIAEVAIHAKIGQNVQPPQNFSHRLGYVIVEGKHYSETAELIEQVKDSLSVQVGQQLESGV
modifications: Brevibacillus brevis NBRC 100599
B2: DES: pyridoxal-phosphate dependent enzyme from Desmospora sp. 8437, SEQ ID NO: 6; tested as MBP fused His6-tagged DES (protein)
chain: MKKKLLFVEGNTTGTGILALEKARKLGYEPVFLTQEASRYDGLPEAKCRVHVTVTDSIHELKRCVSQEKAEAVAGILTTSDYYLEISAKLVQELGLTGNSPQAIHLCRNKALYREKLRSKSVPQPNFHIIRSMEDLRETRESVPLPCLVKPADDSGSNNVRLCFSWGEVEQLTSKILKIERNARGQKTSQTVLLEEYIEGPEYSVEMFSWQGKSTCIGITEKQLTGYPYFVESGHVFPAVLPTDVQQEIEKTVKQSLEAVHFQFGASHSEVKWTPNGCVMIETNARLAGGMIPELVRHSTGVDLIEQQILCAAGVAPHWKQVVPTGCSGIHFIVAAEAGRLSSVDNLEAVRKLPGVEEMMVKAQVGQAVQPPKNFSDRLGHVIVSGKSYEEVVERLHKISNMISLKIS
modifications: MBP fusion, His6 tag; Desmospora sp. 8437

Key:
Type in all cases: biochemical
[1] = Enzymatic production of Asp-Phe using ATP regeneration system; conditions: 0.15 U enzyme, 100 mM L-AspNa, 100 mM L-Phe, 37° C.
Method: The product yield of Asp-Phe was studied in the reaction mixture of BBR47_51900 and Staur_4851 containing phosphoenolpyruvate and pyruvate kinase for regeneration of ATP in order to prevent highly concentrated ATP from inhibiting the enzyme reaction. The composition of the reaction mixture of total volume of 1 ml was as follows.
Reactions were carried out at 37° C. for 1-48 hours. 100 μL out of the 1 mL reaction mixture was sampled at each reaction time. Each reaction mixture, into which 10 μL of 1 M EDTA (pH9.0) was added to stop the reaction, was subjected to HPLC analysis. The condition was as described in Example 4. As a result, BBR47_51900 and Staur_4851 could produce Asp-Phe in the ATP regeneration system (Table 9).

[2] = LC-QTOF/MS/MS determination of dipeptides synthesized; conditions: reaction mixtures of Example 4
From the text: Samples of reaction mixtures and standard solutions obtained as described in Example 4 were subjected to LC-QTOF/MS/MS analysis.
The conditions were as follows:
Equipment: LC (Agilent1200SL), MS (Micromass Q-TOF Premier)
Column: Develosil C30 2.0×250 mm, 3 μm (Nomura Chemical).
Buffers: • A: H2O (0.025% Formic acid), • B: CH3CN (0.025% Formic acid).

[3] = HPLC determination of dipeptides synthesized by the enzymes; conditions: 160 μg enzyme, 10 mM substrates, 10 mM ATP, pH 9.0, 32° C., 15 hours
Method: Dipeptides synthesized by BBR47_51900 and Staur_4851 were determined using HPLC analysis of reaction mixtures of total volume of 400 μL, which contained:
Reactions were carried out at 32° C. for 15 hours. Then […] of reaction mixture was filtered through the Amicon Ultra-0.5 mL, 3K Centrifugal Filters (Millipore, #UFC500396) and subjected to HPLC analysis.
The conditions were as follows: • Equipment: HITACHI L-2000 series. • Column: Inertsil ODS-3 4.6×250 mm, […] (GL Sciences Inc.). • Temperature: 40° C. • Buffers:
A (for mixture L-Asp/L-Val and L-Glu/L-Val): 0.1 M KH2PO4 (pH 2.2)+5 mM octanesulfonate, sodium salt: CH3CN as 4:1 (v/v),
B (for mixture L-Asp/L-Phe): 0.1 M KH2PO4 (pH 2.2)+5 mM octanesulfonate, sodium salt: CH3CN as 7:3 (v/v),
C (for mixture L-Asp/L-PheOMe, L-Asp/L-Trp, and L-Val/L-Val): 0.1 M KH2PO4 (pH 2.2)+5 mM octanesulfonate, sodium salt:CH3CN as 3:2 (v/v),
D (for mixture L-Phe/L-Phe): 0.1 M KH2PO4 (pH 2.2)+5 mM octanesulfonate, sodium salt: CH3CN as 1:1 (v/v). • Gradient profile: isocratic. • Flow rate: 1.5 mL/min. • Injection volume: 10 μL. • Detection: UV 210 nm.
Solution of αGlu-Val, γGlu-Val, αAsp-Val (10 mM each) and αAsp-Phe, βAsp-Phe (5 mM each) were prepared for HPLC analysis. The concentration of a dipeptide formed was determined using corresponding calibration curves. Each solution with standard sample was diluted to 50-folds or 100-folds for LC-QTOF/MS/MS analysis (Example 5).

[4] = Preliminary analysis of substrate specificity by TLC; conditions: 4 μg enzyme, 10 mM each amino acid, 10 mM ATP, pH 8.0, 32° C., 15 hours
From the text: The substrate specificity of BBR47_51900 and Staur_4851 was studied in the reaction mixture containing the enzyme and canonical L-amino acids such as L-alanine, L-arginine, L-asparagine, L-aspartic acid, L-cysteine, glycine, L-glutamic acid, L-glutamine, L-histidine, L-isoleucine, L-leucine, L-lysine, L-methionine, L-phenylalanine, L-proline, L-serine, L-threonine, L-tryptophan, L-tyrosine, and L-valine, or salts thereof, of the same or two different kinds. The composition of the reaction mixture of total volume of 50 μL was as follows unless otherwise noted:
Reactions were carried out at 32° C. for 15 hours. 1-2 μL of reaction mixture was subjected to thin layer chromatography (TLC) analysis using as mobile phase the mixture of 2-propanol:acetone:250 mM ammonia:H2O as 100:100:12:28. […] Detection was performed at 540 nm. The new spots on TLC-plates were detected after developing the reaction mixtures, which contained: […]

[5] = Asp-Phe synthesizing activity of MBP fused His6-tagged DES; conditions: 160 μg DES, 100 mM L-Asp, 100 mM L-Phe, 10 mM ATP, pH 9.0, 37° C., 15 hours
Method: Dipeptides synthesized by MBP fused His6-tagged DES were determined using HPLC analysis of reaction mixture of total volume of 400 μL, which contained:
Reactions were carried out at 37° C. for 15 hours. Then the reaction mixture, into which 10 μl of 1 M EDTA, pH9.0 was added to stop the enzymatic reaction, was subjected to HPLC analysis. The conditions were as described in Example 4. As a result, DES catalyzes formation of 0.30 mM Asp-Phe.

Molecule	Asp-Phe ([1]; 1 hr)	Asp-Phe ([1]; 2 hr)	Asp-Phe ([1]; 4 hr)	Asp-Phe ([1]; 8 hr)	Asp-Phe ([1]; 24 hr)	Asp-Phe ([1]; 48 hr)	Dipeptides whose formation is catalyzed (LC-QTOF/MS/MS) [2]	Dipeptides (mM) Asp-Phe [3]	Dipeptides (mM) Asp-PheOMe [3]	Dipeptides (mM) Asp-Trp [3]	Dipeptides (mM) Asp-Val [3]	Dipeptides (mM) Glu-Val [3]	L-amino acid pairs giving new spots on TLC-plates (ligation) [4]	Asp-Phe formed [5]
B1	7 mM	13 mM	24 mM	40 mM	68 mM	74 mM	αAsp-Phe, αAsp-Val, and αGlu-Val	1.22 mM	0.03 mM	0.13 mM	3.9 mM	1.48 mM	L-Glu/L-Glu, or L-Glu/L-Asp, or L-Glu/L-Val, or L-Glu/L-Ile, or L-Asp/L-Ile, or L-Asp/L-Val	–
B2	–	–	–	–	–	–	–	–	–	–	–	–	–	0.30 mM
